Measured values published in the supplement of paper PMC9170038.

Tested on: MS2 coat protein
Test: apparent KD of MS2 coat protein; higher = weaker reporter binding
Settings: Eterna round: R107
Procedure: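 RNA-MaP round R107: designed RNA switches with theophylline, tryptophan, arginine or FMN aptamers are transcribed on-chip within common flanks. They are titrated with SNAP-549-labelled MS2 coat protein in RNA-MaP buffer (100 mM Tris pH 7.5, 80 mM KCl, 4 mM MgCl2), without ligand or with the indicated ligand. Median apparent KD per design.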

[1] = input ligand: theophylline 20 uM
[2] = input ligand: theophylline 2 mM
[3] = input ligand: tryptophan 2.4 mM

With “AAUAGUCCUCGACAUGGGUAUCACCCAUGUCGAGGACCGGUACGGCCGCCACUCGACAUGAGGAUCACCCAUGUUGAGUGAUAAA [prototype 1.1]” the “apparent KD of MS2 coat protein” value (input ligand: arginine 13.2 mM) was 12.2 nM, the “apparent KD of MS2 coat protein” value (input ligand: none) was 9.57 nM and the “apparent KD of MS2 coat protein” value [1] was 13.7 nM. For the same sequence, the “apparent KD of MS2 coat protein” value [2] was 9.31 nM and the “apparent KD of MS2 coat protein” value [3] was 9.09 nM.

“AAUAUAAGUGUAAUUUUAUGUAUCUCUGAUACCAGACCCUCAUGUGUCCCUUGGCAGCAGUAACAUGAGGAUCACCCAUGUAAAA [JR_Nu_SSTheophyA_Sub023]” was tested, and the “apparent KD of MS2 coat protein” value (input ligand: arginine 13.2 mM) was 30.7 nM, the “apparent KD of MS2 coat protein” value [1] was 103 nM and the “apparent KD of MS2 coat protein” value [3] was 86 nM.

In the case of “AAUCUGUCGGGUGAUACCAGCCUCGGCGCAUCUCGCACCGAACAUGAGGAUCACCCAUGUGGCCCUUGGCAGCACAUGACAAAUC [Ermateus]”, the “apparent KD of MS2 coat protein” value (input ligand: arginine 13.2 mM) is reported as 113 nM, the “apparent KD of MS2 coat protein” value [1] is reported as 767 nM and the “apparent KD of MS2 coat protein” value [3] is reported as 654 nM.

With “AAUGGCGUUGGUGAGGCGGUUAAUGGCGAUACCAGCGUGGAAACACGCCCUUGGCAGCGCCAAAACAUGAGGAUCACCCAUGUUA [Olomouc]” the “apparent KD of MS2 coat protein” value (input ligand: arginine 13.2 mM) was 15.8 nM, the “apparent KD of MS2 coat protein” value [1] was 23.5 nM and the “apparent KD of MS2 coat protein” value [3] was 16.9 nM.

With “AAUGUAUGGCACAUGAGGAUCACCCAUGUGCGAGGACCGGUACGGCCGCCACUCGGUCCUGGGAUCUUACCACUAUACAUUAAUG [XTryp A #21]” the “apparent KD of MS2 coat protein” value (input ligand: arginine 13.2 mM) was 10.2 nM, the “apparent KD of MS2 coat protein” value [1] was 14.8 nM and the “apparent KD of MS2 coat protein” value [2] was 11.3 nM.

With “AAUUAGAUGUCGGCCGCCACUGAUGUGUCUGUUGCGUCCAGUGUGUACAUGAGGAUCACCCAUGUCAGGACCGGGACUUUAAAUU [Sodigeedar]” the “apparent KD of MS2 coat protein” value (input ligand: arginine 13.2 mM) was 12.4 nM, the “apparent KD of MS2 coat protein” value [1] was 13.5 nM and the “apparent KD of MS2 coat protein” value [2] was 12.3 nM.

In the case of “AAUUCAGGGUCGGCCGCCACUGGUAUGGCGAGUCCUCGAACUUACAUGAGGAUCACCCAUGUGAACAGGACCGGGACAGCAUGGG [Exclusion Tryptophan B GF 22]”, the “apparent KD of MS2 coat protein” value (input ligand: arginine 13.2 mM) is reported as 57.8 nM, the “apparent KD of MS2 coat protein” value (input ligand: none) is reported as 233 nM and the “apparent KD of MS2 coat protein” value [1] is reported as 256 nM. For the same sequence, the “apparent KD of MS2 coat protein” value [2] was 239 nM and the “apparent KD of MS2 coat protein” value [3] was 214 nM.

In the case of “AAUUCCUAACAUGAGGAUCACCCAUGUGAAGGAGCGCCGAAUAAGGCAGGUAGGUCGCACAUGGAACAGCUGCGAAAGAGGAAAA [XArg-A 5 V1&2]”, the “apparent KD of MS2 coat protein” value (input ligand: arginine 13.2 mM) is reported as 11.9 nM, the “apparent KD of MS2 coat protein” value (input ligand: none) is reported as 13.2 nM and the “apparent KD of MS2 coat protein” value [1] is reported as 15.3 nM. The “apparent KD of MS2 coat protein” value [2] was 12.5 nM and the “apparent KD of MS2 coat protein” value [3] was 12.7 nM.

In the case of “AAUUGGGUUGGUGAGGUGGUUGGAGGCGAUACCAGCGUGGAAACACGCCCUUGGCAGCGCCAAAACAUGAGGAUCACCCAUGUUA [Plzen]”, the “apparent KD of MS2 coat protein” value (input ligand: arginine 13.2 mM) is reported as 42 nM, the “apparent KD of MS2 coat protein” value (input ligand: none) is reported as 475 nM and the “apparent KD of MS2 coat protein” value [1] is reported as 365 nM. For the same sequence, the “apparent KD of MS2 coat protein” value [2] was 484 nM and the “apparent KD of MS2 coat protein” value [3] was 157 nM.

In the case of “AAUUGGGUUGGUGAGGUGGUUGGAGGCGAUACCAGCGUGGAAACACGCCCUUGGCAGCGCCAGGACAUGAGGAUCACCCAUGUUA [Brno]”, the “apparent KD of MS2 coat protein” value (input ligand: arginine 13.2 mM) is reported as 48.9 nM, the “apparent KD of MS2 coat protein” value (input ligand: none) is reported as 131 nM and the “apparent KD of MS2 coat protein” value [1] is reported as 160 nM. The “apparent KD of MS2 coat protein” value [2] was 448 nM and the “apparent KD of MS2 coat protein” value [3] was 175 nM.

With “AAUUUAUGGUUCUUGAUGUAGUAUCUAUUUCGAGGACCGGUACGGCCGCCACUCGUAAAUUACAUGAGGAUCACCCAUGUUAGCU [JR_ExcTryptoA_Sub011]” the “apparent KD of MS2 coat protein” value (input ligand: arginine 13.2 mM) was 18.8 nM, the “apparent KD of MS2 coat protein” value [1] was 27 nM and the “apparent KD of MS2 coat protein” value [2] was 28.8 nM.

With “AAUUUUCACGGAAGGAGCGUCACGUAAUUCAUACAUGAGGAUCACCCAUGUUAGUGGUAGAGACAGGUAGGUCGCCGUUAUUUGA [JR_AAArginiB_Sub026]” the “apparent KD of MS2 coat protein” value (input ligand: arginine 13.2 mM) was 14.3 nM, the “apparent KD of MS2 coat protein” value (input ligand: none) was 16.8 nM and the “apparent KD of MS2 coat protein” value [1] was 35.3 nM. For the same sequence, the “apparent KD of MS2 coat protein” value [2] was 20.3 nM and the “apparent KD of MS2 coat protein” value [3] was 21.4 nM.

With “ACACACAUGAGGAUCACCCAUGUCUAUAUACGAGGACCGGUACGGCCGCCACUCGUGAGAUCGCGAGAGACAGCUUUGGGCUAGU [theeternabot_sameState_MS2_Trp_A_37]” the “apparent KD of MS2 coat protein” value (input ligand: arginine 13.2 mM) was 17 nM, the “apparent KD of MS2 coat protein” value [1] was 23.9 nM and the “apparent KD of MS2 coat protein” value [2] was 19 nM.

“ACACAUGAGGGAAGGAGCGCCAUGAACACACAUGAGGAUCACCCAUGUUUUUUUUGUGUUUGGCAGGUAGGUCGCCCACAUGAGG [Same State Arginine B 2]” was tested, and the “apparent KD of MS2 coat protein” value (input ligand: arginine 13.2 mM) was 7.38 nM, the “apparent KD of MS2 coat protein” value (input ligand: none) was 10.1 nM and the “apparent KD of MS2 coat protein” value [1] was 22.5 nM. For the same sequence, the “apparent KD of MS2 coat protein” value [2] was 9.33 nM and the “apparent KD of MS2 coat protein” value [3] was 7.57 nM.

With “ACACGAAGCUGAAGGAGCGUGAUAUAAAUUUUUACAUGAGGAUCACCCAUGUUUCAUCGAUCACAGGUAGGUCGCAGAUGCGUGA [JR_SSArginiB_Sub013]” the “apparent KD of MS2 coat protein” value (input ligand: arginine 13.2 mM) was 15.2 nM, the “apparent KD of MS2 coat protein” value (input ligand: none) was 14.4 nM and the “apparent KD of MS2 coat protein” value [1] was 16.9 nM. The “apparent KD of MS2 coat protein” value [2] was 16.9 nM and the “apparent KD of MS2 coat protein” value [3] was 14.8 nM.

In the case of “ACAUAGAGAUUAAUCGUGGGCAUACUCGAUACCAGUAUUUUAACCUACCCUUGGCAGCGACAUGAGGAUCACCCAUGUGAGAUGA [XTheo A #9]”, the “apparent KD of MS2 coat protein” value (input ligand: arginine 13.2 mM) is reported as 21.2 nM, the “apparent KD of MS2 coat protein” value [1] is reported as 25.1 nM and the “apparent KD of MS2 coat protein” value [3] is reported as 23 nM.

For “ACAUGAAGAACAGCGGUGGGCGCGCUCGAUACCAGUACUUUGAUAUACCCUUGGCAGCGACAUGAGGAUCACCCAUGUGAGAUGA [XTheo A #2]”, the “apparent KD of MS2 coat protein” value (input ligand: arginine 13.2 mM) was 16 nM, the “apparent KD of MS2 coat protein” value [1] was 23.9 nM and the “apparent KD of MS2 coat protein” value [3] was 18.1 nM.

With “ACAUGAGCAUCAGCCAUGUGUAUGACAUGACGAGGACCGGUACGGCCGCCACUCGACAUGAGGAUCACCCAUGUUGAGGAUCACA [Exclusion - Tryptophan A #1]” the “apparent KD of MS2 coat protein” value (input ligand: arginine 13.2 mM) was 7.95 nM, the “apparent KD of MS2 coat protein” value [1] was 11.2 nM and the “apparent KD of MS2 coat protein” value [2] was 11.3 nM.
